# Experimental data published in patent publication US6875851.
# T1: Peptide 11
# T1 chain: RGPFPI
# T2: Peptide 8
# T2 chain: VPPGEDSK
# T3: Peptide 2
# T3 chain: RPPGF
# T4: Peptide 14
# T4 chain: RHPKYKTEL
# T5: Peptide 12
# T5 chain: ARPAK
# T6: Peptide 18
# T6 chain: FLREPVIFL
# T7: Peptide 16
# T7 chain: KGPPAALTL
# T8: Peptide 5
# T8 chain: RPGFSPFR
# T9: Peptide 15
# T9 chain: GVPKTHLEL
# T10: Peptide 13
# T10 chain: PNPNQGNFI
# T11: Peptide 19
# T11 chain: GIRPYEILA
# T12: Peptide 22
# T12 chain: KIAGYHLEL
# T13: Peptide 9
# T13 chain: VPPGEDSK
# T14: Peptide 10
# T14 chain: VEPIPY
# Tests used:
# [1] = target: T1, Peptide 11
# [2] = target: T2, Peptide 8
# [3] = target: T3, Peptide 2
# [4] = target: T4, Peptide 14
# [5] = target: T5, Peptide 12
# [6] = target: T6, Peptide 18
# [7] = target: T7, Peptide 16
# [8] = target: T8, Peptide 5
# [9] = target: T9, Peptide 15
# [10] = target: T10, Peptide 13
# [11] = target: T11, Peptide 19
# [12] = target: Peptide 1
# [13] = target: T12, Peptide 22
# [14] = target: T13, Peptide 9
# [15] = target: T14, Peptide 10
protein,measurement,setting,value
prolyl-tripeptidyl peptidase A from P. gingivalis (protein) QSPETSGKEFTLEQLMPGGKEFYNFYPEYVVGLQWMGDNYVFIEGDDLVFNKANGKSAQTTRFSAADLNALMPEGCKFQTTDAFPSFRTLDAGRGLVVLFTQGGLVGFDMLARKVTYLFDTNEETASLDFSPVGDRVAYVRNHNLYIARGGKLGEGMSRAIAVTIDGTETLVYGQAVHQREFGIEKGTFWSPKGSCLAFYRMDQSMVKPTPIVDYHPLEAESKPLYYPMAGTPSHHVTVGIYHLATGKTVYLQTGEPKEKFLTNLSWSPDENILYVAEVNRAQNECKVNAYDAETGRFVRTLFVETDKHYVEPLHPLTFLPGSNNQFIWQSRRDGWNHLYLYDTTGRLIRQVTKGEWEVTNFAGFDPKGTRLYFESTEASPLERHFYCIDIKGGKTKDLTPESGMHRTQLSPDGSAIIDIFQSPTVPRKVTVTNIGKGSHTLLEAKNPDTGYAMPEIRTGTIMAADGQTPLYYKLTMPLHFDPAKKYPVIVYVYGGPHAQLVTKTWRSSVGGWDIYMAQKGYAVFTVDSRGSANRGAAFEQVIHRRLGQTEMADQMCGVDFLKSQSWVDADRIGVHGWSYGGFMTTNLMLTHGDVFKVGVAGGPVIDWNRYEIMYGERYFDAPQENPEGYDAANLLKRAGDLKGRLMLIHGAIDPVVVWQHSLLFLDACVKARTYPDYYVYPSHEHNVMGPDRVHLYETITRYFTDHL,Cleavage site,[1],H-Arg-Gly-Pro-↓-Phe-Pro-Ile
same,Cleavage site,[2],H-Val-Pro-Pro-↓-Gly-Glu-Asp-Ser-Lys
same,Cleavage site,[3],H-Arg-Pro-Pro-↓-Gly-Phe
same,Cleavage site,[4],H-Arg-His-Pro-↓-Lys-Tyr-Lys-Thr-Glu-Leu
same,Cleavage site,[5],H-Ala-Arg-Pro-↓-Ala-D-Lys-amide
same,Cleavage site (no ↓ printed: not cleaved),[6],H-Phe-Leu-Arg-Glu-Pro-Val-Ile-Phe-Leu
same,Cleavage site (no ↓ printed: not cleaved),[7],H-Lys-Gly-Pro-Pro-Ala-Ala-Leu-Thr-Leu
same,Cleavage site (no ↓ printed: not cleaved),[8],H-Arg-Pro-Hyp-Gly-Phe-Ser-Pro-Phe-Arg
same,Cleavage site,[9],H-Gly-Val-Pro-↓-Lys-Thr-His-Leu-Glu-Leu
same,Cleavage site,[10],H-Pro-Asn-Pro-↓-Asn-Gln-Gly-Asn-Phe-Ile
same,Cleavage site (no ↓ printed: not cleaved),[11],H-Gly-Ile-Arg-Pro-Tyr-Glu-Ile-Leu-Ala
same,Cleavage site,[12],H-Arg-Pro-Pro-↓-Gly-Phe-Ser-Pro-Phe-Arg
same,Cleavage site (no ↓ printed: not cleaved),[13],H-Lys-Ile-Ala-Gly-Tyr-His-Leu-Glu-Leu
same,Cleavage site (no ↓ printed: not cleaved),[14],Ac-Val-Pro-Pro-Gly-Glu-Asp-Ser-Lys
same,Cleavage site,[15],H-Val-Glu-Pro-↓-Ile-Pro-Tyr
